In publication PMC4822050, “Hemi-methylated DNA opens a closed conformation of UHRF1 to facilitate its histone recognition” (Nature Communications, 2016):

B1: Spacer of UHRF1 (residues 587–674) [human] / TTD of UHRF1 (residues 134–285) [human] (parent)
chain 1: PGPWTKEGKDRIKKLGLTMQYPEGYLEALANREREKENSKREEEEQQEGGFASPRTGKGKWKRKSAGGGPSRAGSPRRTSKKTKVEPY
chain 2: LYKVNEYVDARDTNMGAWFEAQVVRVTRKAPSRDEPCSSTSRPALEEDVIYHVKYDDYPENGVVQMNSRDVRARARTIIKWQDLEVGQVVMLNYNPDNPKERGFWYDAEISRKRETRTARELYANVVLGDDSLNDCRIIFVDEVFKIERPGE

Variants of: B1
Test: ITC
Conditions: with TTD of UHRF1 (residues 134–285) [human]; Cell: Spacer; Sy: TTD

| Kd [µM] | Variant |
| --- | --- |
| 5.94 | chain 1 K62D |
| 1.26 | chain 1 S80D |
| 21.4 | chain 1 R63A |
| 1.15 | chain 1 S53D |
